Variants at the floor of the assay were thinned out.

Data on 25 sequences can be found in the supplement of paper PMC9233669.

One data set has as its system biotinyl-Phe-oxazolone. Briefly: self-aminoacylation, catalytic enhancement (BFO) (fold over background); higher = more active; k-Seq, kA / k0A0; sequences stand for … in GGGAAUGGAUCCACAUCUACGAAUUC…UUCACUGCAGACUUGACGAAGCUG
Summed up: (§1)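 Mutagenized RNA pools (0.43 μM; 21-nt variable region) were treated with 2–1250 μM of each biotinyl-aminoacyl-oxazolone. Conditions were 50 μL HEPES/NaCl/KCl/MgCl2/CaCl2 buffer, 5% acetonitrile, pH 6.9–7.0, room temperature, 90 minutes. Catalytic enhancement, the median kA relative to the uncatalyzed rate, was derived from streptavidin capture, qPCR and Illumina sequencing.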

In another data set the test system is biotinyl-Met-oxazolone. In words: self-aminoacylation, catalytic enhancement (BMO) (fold over background); higher = more active; k-Seq, kA / k0A0; sequences stand for … in GGGAAUGGAUCCACAUCUACGAAUUC…UUCACUGCAGACUUGACGAAGCUG
The gist of the method:
as §1

The next data set concerns biotinyl-Val-oxazolone. Briefly: self-aminoacylation, catalytic enhancement (BVO) (fold over background); higher = more active; k-Seq, kA / k0A0; sequences stand for … in GGGAAUGGAUCCACAUCUACGAAUUC…UUCACUGCAGACUUGACGAAGCUG
Summed up: as §1

The test system of another data set is biotinyl-Ile-oxazolone. In words: self-aminoacylation, catalytic enhancement (BIO) (fold over background); higher = more active; k-Seq, kA / k0A0; sequences stand for … in GGGAAUGGAUCCACAUCUACGAAUUC…UUCACUGCAGACUUGACGAAGCUG
Summed up:
as §1

Another data set relates to biotinyl-Leu-oxazolone. In words: self-aminoacylation, catalytic enhancement (BLO) (fold over background); higher = more active; k-Seq, kA / k0A0; sequences stand for … in GGGAAUGGAUCCACAUCUACGAAUUC…UUCACUGCAGACUUGACGAAGCUG
Summed up: as §1

Another data set relates to biotinyl-Trp-oxazolone. In words: self-aminoacylation, catalytic enhancement (BWO) (fold over background); higher = more active; k-Seq, kA / k0A0; sequences stand for … in GGGAAUGGAUCCACAUCUACGAAUUC…UUCACUGCAGACUUGACGAAGCUG
The gist of the method:
as §1

On to “CCACACGUUAAGCAAUCGGUC [Fam1B.1 aminoacylation ribozyme variant]”, for which the self-aminoacylation came to 1.05 in the data set with biotinyl-Phe-oxazolone; 0.992 with biotinyl-Met-oxazolone; 1.15 in the data set with biotinyl-Val-oxazolone; 1.09 in the data set on biotinyl-Ile-oxazolone; 0.93 in the data set on biotinyl-Leu-oxazolone; 0.931 in the data set on biotinyl-Trp-oxazolone.
In the case of “AGGUUUGCUAAUCGUCGCAAG [Fam3.1 aminoacylation ribozyme variant]”, the self-aminoacylation with biotinyl-Phe-oxazolone was found to be 2.43; in the data set with biotinyl-Met-oxazolone it was 1.44; in the data set on biotinyl-Val-oxazolone, 1.34; with biotinyl-Ile-oxazolone, 1.42; with biotinyl-Leu-oxazolone, 1.45; in the data set on biotinyl-Trp-oxazolone, 1.98.
On to “CUACUUCAAAAAAUCGGUCUA [Fam1A.1 aminoacylation ribozyme variant]”, for which the self-aminoacylation was 4.37 in the data set on biotinyl-Phe-oxazolone; 0.725 in the data set with biotinyl-Met-oxazolone; 0.697 with biotinyl-Val-oxazolone; 0.842 in the data set on biotinyl-Ile-oxazolone; 0.79 in the data set with biotinyl-Leu-oxazolone; 2.39 in the data set with biotinyl-Trp-oxazolone.
With “CCACAUGUCAAGCAAUCGGUC [Fam1B.1 aminoacylation ribozyme variant]”, the self-aminoacylation in the data set with biotinyl-Phe-oxazolone came out at 1.08; with biotinyl-Met-oxazolone, 1.13; in the data set with biotinyl-Val-oxazolone, 1.33; with biotinyl-Ile-oxazolone it was 1.22; in the data set with biotinyl-Leu-oxazolone it was 1.27; with biotinyl-Trp-oxazolone it was 0.915.
Take “ACUACCCUGGUCAUAGAGUGA [Fam2.1 aminoacylation ribozyme variant]”: the self-aminoacylation was determined as 38.1 with biotinyl-Phe-oxazolone; 6.89 in the data set with biotinyl-Met-oxazolone; 3.19 in the data set with biotinyl-Val-oxazolone; 3.26 in the data set on biotinyl-Ile-oxazolone; 7.11 in the data set with biotinyl-Leu-oxazolone; 7.77 in the data set on biotinyl-Trp-oxazolone.
With “CUACUUCAAACAAUCGGUACG [Fam1A.1 aminoacylation ribozyme variant]”, the self-aminoacylation in the data set with biotinyl-Phe-oxazolone was found to be 2.05; in the data set with biotinyl-Met-oxazolone, 0.396; in the data set on biotinyl-Val-oxazolone it was 0.577; in the data set on biotinyl-Ile-oxazolone, 0.461; in the data set with biotinyl-Leu-oxazolone, 0.425; with biotinyl-Trp-oxazolone, 0.839.
With “AUUCACCUAGAUCAUCGUGUG [Fam2.2 aminoacylation ribozyme variant]”, the self-aminoacylation in the data set with biotinyl-Phe-oxazolone was found to be 1.49; with biotinyl-Met-oxazolone, 1.36; in the data set on biotinyl-Val-oxazolone it was 0.999; with biotinyl-Ile-oxazolone it was 0.956; with biotinyl-Leu-oxazolone it was 1.38; in the data set on biotinyl-Trp-oxazolone it was 1.06.
On to “AUUGACCAAGGUCAUCGGGUG [Fam2.2 aminoacylation ribozyme variant]”, for which the self-aminoacylation with biotinyl-Phe-oxazolone stood at 45.5; with biotinyl-Met-oxazolone, 6.04; with biotinyl-Val-oxazolone it was 3.9; in the data set with biotinyl-Ile-oxazolone, 4.36; in the data set with biotinyl-Leu-oxazolone, 7.01; in the data set with biotinyl-Trp-oxazolone it was 6.06.
Regarding “AUUACCCCGCUCAUCGAGUGA [Fam2.1 aminoacylation ribozyme variant]”, the self-aminoacylation was 6.93 in the data set with biotinyl-Phe-oxazolone; 1.89 in the data set on biotinyl-Met-oxazolone; 1.73 in the data set with biotinyl-Val-oxazolone; 1.16 in the data set with biotinyl-Ile-oxazolone; 1.99 in the data set on biotinyl-Leu-oxazolone; 1.17 in the data set on biotinyl-Trp-oxazolone.
In the case of “CUACUUCAAACAAUCCGUAUG [Fam1A.1 aminoacylation ribozyme variant]”, the self-aminoacylation in the data set with biotinyl-Phe-oxazolone is 0.759; in the data set with biotinyl-Met-oxazolone it was 0.65; with biotinyl-Val-oxazolone it was 0.81; in the data set on biotinyl-Ile-oxazolone, 0.723; in the data set on biotinyl-Leu-oxazolone it was 0.769; with biotinyl-Trp-oxazolone, 0.715.
With “AUUCACAUAGGUCAUCGGGUC [Fam2.2 aminoacylation ribozyme variant]”, the self-aminoacylation with biotinyl-Phe-oxazolone is 0.659; with biotinyl-Met-oxazolone, 1.39; with biotinyl-Val-oxazolone it was 1.65; in the data set with biotinyl-Ile-oxazolone, 1.51; in the data set with biotinyl-Leu-oxazolone, 1.34; with biotinyl-Trp-oxazolone it was 1.49.
Turning to “CUACUUCAAACAACCCGUCUG [Fam1A.1 aminoacylation ribozyme variant]”, the self-aminoacylation was determined as 0.796 with biotinyl-Phe-oxazolone; 0.657 in the data set on biotinyl-Met-oxazolone; 1.04 in the data set on biotinyl-Val-oxazolone; 0.906 in the data set on biotinyl-Ile-oxazolone; 0.911 with biotinyl-Leu-oxazolone; 0.923 in the data set on biotinyl-Trp-oxazolone.
Consider “CUACUUCAAUCAAUCCGUCUG [Fam1A.1 aminoacylation ribozyme variant]”, for which the self-aminoacylation is 0.657 in the data set with biotinyl-Phe-oxazolone; 0.664 with biotinyl-Met-oxazolone; 0.672 in the data set with biotinyl-Val-oxazolone; 0.758 in the data set on biotinyl-Ile-oxazolone; 0.694 in the data set on biotinyl-Leu-oxazolone; 0.695 in the data set with biotinyl-Trp-oxazolone.
Regarding “AUUCAGCUAGGUCAUCGGCUG [Fam2.2 aminoacylation ribozyme variant]”, the self-aminoacylation in the data set with biotinyl-Phe-oxazolone was 11.6; with biotinyl-Met-oxazolone it was 1.55; in the data set on biotinyl-Val-oxazolone it was 1.86; with biotinyl-Ile-oxazolone it was 1.63; in the data set with biotinyl-Leu-oxazolone it was 1.52; in the data set with biotinyl-Trp-oxazolone it was 2.02.
With “AUUACCCUGGUCAUCUAGGGA [Fam2.1 aminoacylation ribozyme variant]”, the self-aminoacylation with biotinyl-Phe-oxazolone came out at 1.72; with biotinyl-Met-oxazolone, 1.17; in the data set on biotinyl-Val-oxazolone, 1.32; with biotinyl-Ile-oxazolone, 1.36; with biotinyl-Leu-oxazolone, 1.47; in the data set on biotinyl-Trp-oxazolone, 0.956.
In the case of “AAGUUUGCUCAUAGUCGCAAG [Fam3.1 aminoacylation ribozyme variant]”, the self-aminoacylation with biotinyl-Phe-oxazolone came to 7.54; in the data set with biotinyl-Met-oxazolone, 1.13; in the data set with biotinyl-Val-oxazolone it was 0.942; with biotinyl-Ile-oxazolone, 0.968; in the data set with biotinyl-Leu-oxazolone, 0.906; in the data set with biotinyl-Trp-oxazolone, 2.38.
Turning to “AUUACCCUGAUCAUCGACUGA [Fam2.1 aminoacylation ribozyme variant]”, the self-aminoacylation in the data set with biotinyl-Phe-oxazolone stood at 1.16; in the data set with biotinyl-Met-oxazolone, 0.78; in the data set with biotinyl-Val-oxazolone, 0.876; in the data set with biotinyl-Ile-oxazolone, 0.928; in the data set with biotinyl-Leu-oxazolone it was 0.777; in the data set with biotinyl-Trp-oxazolone it was 0.666.
“AAGUGUGCUAAUAGUCGCAUG [Fam3.1 aminoacylation ribozyme variant]”: the self-aminoacylation in the data set on biotinyl-Phe-oxazolone was determined as 1.09; with biotinyl-Met-oxazolone it was 1.44; in the data set with biotinyl-Val-oxazolone, 1.3; in the data set with biotinyl-Ile-oxazolone, 1.38; with biotinyl-Leu-oxazolone, 1.86; in the data set on biotinyl-Trp-oxazolone, 1.98.
For “CUUCACAUAGGUCAUCGGGUG [Fam2.2 aminoacylation ribozyme variant]”, the self-aminoacylation with biotinyl-Phe-oxazolone came to 33; with biotinyl-Met-oxazolone, 5.24; in the data set with biotinyl-Val-oxazolone, 3.98; with biotinyl-Ile-oxazolone, 3.77; in the data set with biotinyl-Leu-oxazolone it was 6.86; in the data set on biotinyl-Trp-oxazolone, 5.58.
Take “AUUCACGUAUGUCAUCGGGUG [Fam2.2 aminoacylation ribozyme variant]”: the self-aminoacylation worked out at 73.5 with biotinyl-Phe-oxazolone; 8.47 in the data set with biotinyl-Met-oxazolone; 5.58 with biotinyl-Val-oxazolone; 5.2 in the data set on biotinyl-Ile-oxazolone; 9.38 in the data set on biotinyl-Leu-oxazolone; 7.42 with biotinyl-Trp-oxazolone.
In the case of “AAGUUUCCUAAUAGUCGCAUG [Fam3.1 aminoacylation ribozyme variant]”, the self-aminoacylation with biotinyl-Phe-oxazolone amounted to 2.38; with biotinyl-Met-oxazolone, 1.89; in the data set with biotinyl-Val-oxazolone, 1.9; in the data set on biotinyl-Ile-oxazolone, 2.28; with biotinyl-Leu-oxazolone, 1.94; in the data set with biotinyl-Trp-oxazolone, 2.11.
Turning to “AUAAACCUGGUCAUCGAGUGA [Fam2.1 aminoacylation ribozyme variant]”, the self-aminoacylation in the data set with biotinyl-Phe-oxazolone amounted to 11.4; in the data set on biotinyl-Met-oxazolone, 7.78; in the data set with biotinyl-Val-oxazolone it was 4.1; in the data set with biotinyl-Ile-oxazolone, 4.13; with biotinyl-Leu-oxazolone it was 8.44; with biotinyl-Trp-oxazolone it was 9.62.
On to “AUUCACCUUGGUCACCGGGUG [Fam2.2 aminoacylation ribozyme variant]”, for which the self-aminoacylation came out at 27.5 with biotinyl-Phe-oxazolone; 5.58 in the data set on biotinyl-Met-oxazolone; 4.2 in the data set with biotinyl-Val-oxazolone; 4.82 in the data set on biotinyl-Ile-oxazolone; 6.72 in the data set with biotinyl-Leu-oxazolone; 5.4 with biotinyl-Trp-oxazolone.
With “AUACACCUAGGUCCUCGGGUG [Fam2.2 aminoacylation ribozyme variant]”, the self-aminoacylation in the data set on biotinyl-Phe-oxazolone turned out to be 21.8; in the data set with biotinyl-Met-oxazolone, 2.71; with biotinyl-Val-oxazolone, 3.57; with biotinyl-Ile-oxazolone, 3.44; with biotinyl-Leu-oxazolone, 3.48; in the data set with biotinyl-Trp-oxazolone, 3.71.
As to “AUUCACCUAGGGCAUGGGGUG [Fam2.2 aminoacylation ribozyme variant]”, the self-aminoacylation in the data set with biotinyl-Phe-oxazolone amounted to 81.4; in the data set with biotinyl-Met-oxazolone, 10.1; with biotinyl-Val-oxazolone, 5.39; with biotinyl-Ile-oxazolone, 5.82; in the data set on biotinyl-Leu-oxazolone it was 12; in the data set with biotinyl-Trp-oxazolone, 9.2.
